In article PMC7142922:

Biological target: T1, TyrR (Escherichia coli DH5alpha) (UniProt P07604)
T1 sequence: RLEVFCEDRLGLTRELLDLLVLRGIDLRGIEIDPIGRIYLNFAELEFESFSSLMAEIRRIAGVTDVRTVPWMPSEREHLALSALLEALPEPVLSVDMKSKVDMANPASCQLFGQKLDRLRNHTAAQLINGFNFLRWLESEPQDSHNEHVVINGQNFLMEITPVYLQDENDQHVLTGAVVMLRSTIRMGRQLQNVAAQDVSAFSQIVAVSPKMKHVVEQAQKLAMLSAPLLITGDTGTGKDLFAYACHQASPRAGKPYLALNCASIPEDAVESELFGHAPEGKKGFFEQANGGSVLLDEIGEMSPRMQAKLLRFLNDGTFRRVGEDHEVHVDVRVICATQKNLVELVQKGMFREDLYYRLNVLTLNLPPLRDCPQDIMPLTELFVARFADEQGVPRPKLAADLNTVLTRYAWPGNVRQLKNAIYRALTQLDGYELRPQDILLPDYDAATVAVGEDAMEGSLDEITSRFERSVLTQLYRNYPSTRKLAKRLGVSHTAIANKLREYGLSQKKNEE
Experiment: EMSA
Conditions: TyrR EMSA: 50 mM Tris-HCl pH 7.8, 50 mM NaCl, 3 mM Mg acetate, 0.1 mM EDTA, 0.1 mM DTT, 25 ug/mL BSA, 0.1 mM Phe, 0.1 mM ATP, ~15 nM DNA, 37 C 30 min, 2% …

CTGCAGCACTATCACTCTTTTGTCTTGGTAAGAATAATGGTATGTGACTGCGAATGCACCTGCTTTGTGCAGGGGTGATGACGAGTTGCGTAAAAAGAAAGCACTTGTAAACCCTTTTAGCATTACTCACTTTATTTTGCATAGCATGTGATGTGCGGAGAAATCTTAGCAGTGAGCAGACCAATAAATAGAATATTCAGAACGGTGTTATTTTATTGACATCGTCAGCGGGGGAGGCGTTTAATTTATATTCGGATGTCGTAAAGCTTAA (double strand) [deltaTB fragment without TyrR boxes (274 bp)]
binding: no binding
